PMC7453904, “Intrahepatic heteropolymerization of M and Z alpha-1-antitrypsin” (JCI Insight, 2020)
Each block holds one molecule with its values, some of them ahead of it.

Legend:
[1] = biological target: Z A1AT subunit of MZ heterozygote liver polymers (human (endogenous in liver tissue)); experiment: negative-stain electron microscopy of liver polymers; polymers formed in vivo, extracted from inclusion bodies of explant liver and purified; imaged with and without Fab2H2, which marks M subunits; subunits counted
[2] = biological target: T1, plasma-purified monomeric native M alpha-1-antitrypsin (Homo sapiens (Human)., UniProt P01009); experiment: SPR; Biacore T100; mAb2H2 amine-coupled to a CM5 chip; A1AT analytes 0–2 μM in PBS with 0.05% v/v Tween-20 at 30 μL/min; maximal responses fit by a hyperbolic function; settings: both partners purified
T1 construct: Plasma glycoprotein; also called M A1AT; native M A1AT
T1 sequence (P01009 25-418): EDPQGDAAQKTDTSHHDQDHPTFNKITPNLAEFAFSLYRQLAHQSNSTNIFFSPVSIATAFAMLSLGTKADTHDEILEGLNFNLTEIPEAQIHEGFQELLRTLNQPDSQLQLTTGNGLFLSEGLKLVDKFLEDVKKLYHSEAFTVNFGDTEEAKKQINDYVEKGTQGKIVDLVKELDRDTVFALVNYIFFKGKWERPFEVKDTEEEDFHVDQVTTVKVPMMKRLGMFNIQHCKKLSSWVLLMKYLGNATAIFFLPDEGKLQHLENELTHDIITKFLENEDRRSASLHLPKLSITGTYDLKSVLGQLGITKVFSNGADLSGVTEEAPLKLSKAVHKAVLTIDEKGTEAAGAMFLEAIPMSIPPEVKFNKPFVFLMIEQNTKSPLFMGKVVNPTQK

Molecule: Z A1AT subunit of MZ heterozygote liver polymers (natural protein)
mean length in subunits of circular polymers without a detectable M component [1]: 6.6 subunits
mean length in subunits of linear polymers without a detectable M component [1]: 6.5 subunits

Kd [2]: 447 nM
B1: monoclonal antibody mAb2H2 (antibody, V domains shown)
VH: EVQLEESGGGLVKPGGSLKLSCAASGFAFSIYDMSWVRQTPEKRLEWVAYISSGGGTTYYPDTVKGRFTISRDNAKNTLYLQMSSLKSEDTAIYYCARHAGVHYWGQGTTLTVSS
VL: DIVMTQSPSSMYASLGERVTITCKASQDINSYLSWFQQKPGKSPKNLIYRANRLVDGVPSRFSGSGSGQDYSLTISSLEYEDMGIYYCLQYDEFPWTFGGGTKLESK
notes: Whole mouse monoclonal antibody; Raised against heat-induced and denaturant-induced polymers of plasma A1AT; also called clone 2H2; source: hybridoma from splenocytes of immunized BALB/c mice; in culture medium (screen) and purified (HiTrap Protein G)
